± gives the uncertainty stated by the source.
B1: POU domain, class 3, transcription factor 3, residues 320 to 388; numbered along this chain, P20264 (parent)
chain: DDLEQFAKQFKQRRIKLGFTQADVGLALGTLYGNVFSQTTICRFEALQLSFKNMCKLKPLLNKWLEEAD

Variants of: B1
Assay: abundance fitness (aPCA) (normalised: wild type 0, dead -1); higher = more abundant; growth selection in yeast, the domain comes from the species named
Details: Homo sapiens

Point of comparison: DDLEQFAKCFKQRRIKLGFTQADVGLALGTLYGNVFSQTTICRFEALQLSFKNMCKLKPLLNKWLEEAD, abundance fitness -0.457 ± 0.12. Against it:
- DDLEQFAKRFKQRRIKLGFTQADVGLALGTLYGNVFSQTTICRFEALQLSFKNMCKLKPLLNKWLEEAD — higher, -0.222 ± 0.066
- DDLEQFAKKFKQRRIKLGFTQADVGLALGTLYGNVFSQTTICRFEALQLSFKNMCKLKPLLNKWLEEAD — higher, -0.046 ± 0.071
- DDLEQFAKTFKQRRIKLGFTQADVGLALGTLYGNVFSQTTICRFEALQLSFKNMCKLKPLLNKWLEEAD — higher, 0.029 ± 0.097
- DDLEQFAKLFKQRRIKLGFTQADVGLALGTLYGNVFSQTTICRFEALQLSFKNMCKLKPLLNKWLEEAD — higher, -0.223 ± 0.043
- DDLEQFAKNFKQRRIKLGFTQADVGLALGTLYGNVFSQTTICRFEALQLSFKNMCKLKPLLNKWLEEAD — higher, 0.038 ± 0.12
- DDLEQFAKEFKQRRIKLGFTQADVGLALGTLYGNVFSQTTICRFEALQLSFKNMCKLKPLLNKWLEEAD — higher, 0.042 ± 0.12
- DDLEQFAKVFKQRRIKLGFTQADVGLALGTLYGNVFSQTTICRFEALQLSFKNMCKLKPLLNKWLEEAD — higher, -0.231 ± 0.081
- DDLEQFAKGFKQRRIKLGFTQADVGLALGTLYGNVFSQTTICRFEALQLSFKNMCKLKPLLNKWLEEAD — higher, -0.205 ± 0.083
- DDLEQFAKSFKQRRIKLGFTQADVGLALGTLYGNVFSQTTICRFEALQLSFKNMCKLKPLLNKWLEEAD — higher, -0.107 ± 0.082
- DDLEQFAKWFKQRRIKLGFTQADVGLALGTLYGNVFSQTTICRFEALQLSFKNMCKLKPLLNKWLEEAD — higher, -0.2 ± 0.1
- DDLEQFAKYFKQRRIKLGFTQADVGLALGTLYGNVFSQTTICRFEALQLSFKNMCKLKPLLNKWLEEAD — higher, 0.052 ± 0.12
- DDLEQFAKMFKQRRIKLGFTQADVGLALGTLYGNVFSQTTICRFEALQLSFKNMCKLKPLLNKWLEEAD — higher, 0.128 ± 0.12
- DDLEQFAKIFKQRRIKLGFTQADVGLALGTLYGNVFSQTTICRFEALQLSFKNMCKLKPLLNKWLEEAD — within error, -0.425 ± 0.26
- DDLEQFAKAFKQRRIKLGFTQADVGLALGTLYGNVFSQTTICRFEALQLSFKNMCKLKPLLNKWLEEAD — within error, -0.241 ± 0.1
- DDLEQFASQFKQRRIKLGFTQADVGLALGTLYGNVFSQTTICRFEALQLSFKNMCKLKPLLNKWLEEAD — within error, -0.738 ± 0.23
- DDLEQFAQQFKQRRIKLGFTQADVGLALGTLYGNVFSQTTICRFEALQLSFKNMCKLKPLLNKWLEEAD — higher, -0.061 ± 0.099
- DDLEQFAWQFKQRRIKLGFTQADVGLALGTLYGNVFSQTTICRFEALQLSFKNMCKLKPLLNKWLEEAD — within error, -0.42 ± 0.19
- DDLEQFAVQFKQRRIKLGFTQADVGLALGTLYGNVFSQTTICRFEALQLSFKNMCKLKPLLNKWLEEAD — within error, -0.424 ± 0.11
- DDLEQFAMQFKQRRIKLGFTQADVGLALGTLYGNVFSQTTICRFEALQLSFKNMCKLKPLLNKWLEEAD — higher, -0.106 ± 0.14
- DDLEQFATQFKQRRIKLGFTQADVGLALGTLYGNVFSQTTICRFEALQLSFKNMCKLKPLLNKWLEEAD — within error, -0.475 ± 0.24
- DDLEQFAIQFKQRRIKLGFTQADVGLALGTLYGNVFSQTTICRFEALQLSFKNMCKLKPLLNKWLEEAD — higher, 0.162 ± 0.33
- DDLEQFALQFKQRRIKLGFTQADVGLALGTLYGNVFSQTTICRFEALQLSFKNMCKLKPLLNKWLEEAD — higher, 0.022 ± 0.07
- DDLEQFAHQFKQRRIKLGFTQADVGLALGTLYGNVFSQTTICRFEALQLSFKNMCKLKPLLNKWLEEAD — within error, -0.306 ± 0.21
- DDLEQFAKQFKTRRIKLGFTQADVGLALGTLYGNVFSQTTICRFEALQLSFKNMCKLKPLLNKWLEEAD — within error, -0.283 ± 0.11
- DDLEQFAKQFKVRRIKLGFTQADVGLALGTLYGNVFSQTTICRFEALQLSFKNMCKLKPLLNKWLEEAD — within error, -0.265 ± 0.085
- DDLEQFAKQFKWRRIKLGFTQADVGLALGTLYGNVFSQTTICRFEALQLSFKNMCKLKPLLNKWLEEAD — higher, -0.146 ± 0.15
- DDLEQFAKQFKCRRIKLGFTQADVGLALGTLYGNVFSQTTICRFEALQLSFKNMCKLKPLLNKWLEEAD — within error, -0.438 ± 0.16
- DDLEQFAKQFKRRRIKLGFTQADVGLALGTLYGNVFSQTTICRFEALQLSFKNMCKLKPLLNKWLEEAD — higher, -0.124 ± 0.064
- DDLEQFAKQFKMRRIKLGFTQADVGLALGTLYGNVFSQTTICRFEALQLSFKNMCKLKPLLNKWLEEAD — within error, -0.409 ± 0.19
- DDLEQFAKQFKDRRIKLGFTQADVGLALGTLYGNVFSQTTICRFEALQLSFKNMCKLKPLLNKWLEEAD — within error, -0.23 ± 0.21
- DDLEQFAKQFKYRRIKLGFTQADVGLALGTLYGNVFSQTTICRFEALQLSFKNMCKLKPLLNKWLEEAD — within error, -0.176 ± 0.17
- DDLEQFAKQFKIRRIKLGFTQADVGLALGTLYGNVFSQTTICRFEALQLSFKNMCKLKPLLNKWLEEAD — within error, -0.594 ± 0.48
- DDLEQFAKQFKARRIKLGFTQADVGLALGTLYGNVFSQTTICRFEALQLSFKNMCKLKPLLNKWLEEAD — higher, -0.1 ± 0.085
- DDLEQFAKQFKPRRIKLGFTQADVGLALGTLYGNVFSQTTICRFEALQLSFKNMCKLKPLLNKWLEEAD — within error, -0.694 ± 0.21
- DDLEQFAKQFKERRIKLGFTQADVGLALGTLYGNVFSQTTICRFEALQLSFKNMCKLKPLLNKWLEEAD — higher, -0.044 ± 0.13
- DDLEQFAKQFKGRRIKLGFTQADVGLALGTLYGNVFSQTTICRFEALQLSFKNMCKLKPLLNKWLEEAD — within error, -0.636 ± 0.075
- DDLEQFAKQFKFRRIKLGFTQADVGLALGTLYGNVFSQTTICRFEALQLSFKNMCKLKPLLNKWLEEAD — within error, -0.654 ± 0.27
- DDLEQFAKQFKKRRIKLGFTQADVGLALGTLYGNVFSQTTICRFEALQLSFKNMCKLKPLLNKWLEEAD — within error, -0.276 ± 0.11
- DDLEQFAKQFKLRRIKLGFTQADVGLALGTLYGNVFSQTTICRFEALQLSFKNMCKLKPLLNKWLEEAD — higher, -0.201 ± 0.07
- DDLEQFAKQFKSRRIKLGFTQADVGLALGTLYGNVFSQTTICRFEALQLSFKNMCKLKPLLNKWLEEAD — higher, -0.143 ± 0.1
- DDLEQFAKQFKQMRIKLGFTQADVGLALGTLYGNVFSQTTICRFEALQLSFKNMCKLKPLLNKWLEEAD — within error, -0.578 ± 0.15
- DDLEQFAKQFKQQRIKLGFTQADVGLALGTLYGNVFSQTTICRFEALQLSFKNMCKLKPLLNKWLEEAD — within error, -0.32 ± 0.098
- DDLEQFAKQFKQIRIKLGFTQADVGLALGTLYGNVFSQTTICRFEALQLSFKNMCKLKPLLNKWLEEAD — within error, -0.771 ± 0.27
- DDLEQFAKQFKQSRIKLGFTQADVGLALGTLYGNVFSQTTICRFEALQLSFKNMCKLKPLLNKWLEEAD — within error, -0.582 ± 0.15
- DDLEQFAKQFKQHRIKLGFTQADVGLALGTLYGNVFSQTTICRFEALQLSFKNMCKLKPLLNKWLEEAD — within error, -0.263 ± 0.16
- DDLEQFAKQFKQARIKLGFTQADVGLALGTLYGNVFSQTTICRFEALQLSFKNMCKLKPLLNKWLEEAD — within error, -0.385 ± 0.11
- DDLEQFAKQFKQLRIKLGFTQADVGLALGTLYGNVFSQTTICRFEALQLSFKNMCKLKPLLNKWLEEAD — lower, -0.824 ± 0.16
- DDLEQFAKQFKQERIKLGFTQADVGLALGTLYGNVFSQTTICRFEALQLSFKNMCKLKPLLNKWLEEAD — within error, -0.311 ± 0.15
- DDLEQFAKQFKQGRIKLGFTQADVGLALGTLYGNVFSQTTICRFEALQLSFKNMCKLKPLLNKWLEEAD — within error, -0.745 ± 0.18
- DDLEQFAKQFKQKRIKLGFTQADVGLALGTLYGNVFSQTTICRFEALQLSFKNMCKLKPLLNKWLEEAD — higher, -0.062 ± 0.086
- DDLEQFAKQFKQPRIKLGFTQADVGLALGTLYGNVFSQTTICRFEALQLSFKNMCKLKPLLNKWLEEAD — lower, -0.865 ± 0.21
- DDLEQFAKQFKQNRIKLGFTQADVGLALGTLYGNVFSQTTICRFEALQLSFKNMCKLKPLLNKWLEEAD — within error, -0.698 ± 0.38
- DDLEQFAKQRKQRRIKLGFTQADVGLALGTLYGNVFSQTTICRFEALQLSFKNMCKLKPLLNKWLEEAD — within error, -0.543 ± 0.16
- DDLEQFAKQSKQRRIKLGFTQADVGLALGTLYGNVFSQTTICRFEALQLSFKNMCKLKPLLNKWLEEAD — within error, -0.846 ± 0.28
- DDLEQFAKQQKQRRIKLGFTQADVGLALGTLYGNVFSQTTICRFEALQLSFKNMCKLKPLLNKWLEEAD — within error, -0.698 ± 0.38
- DDLEQFAKQYKQRRIKLGFTQADVGLALGTLYGNVFSQTTICRFEALQLSFKNMCKLKPLLNKWLEEAD — within error, -0.631 ± 0.36
- DDLEQFAKQCKQRRIKLGFTQADVGLALGTLYGNVFSQTTICRFEALQLSFKNMCKLKPLLNKWLEEAD — within error, -0.338 ± 0.25
- DDLEQFAKQAKQRRIKLGFTQADVGLALGTLYGNVFSQTTICRFEALQLSFKNMCKLKPLLNKWLEEAD — within error, -0.776 ± 0.24
- DDLEQFAKQKKQRRIKLGFTQADVGLALGTLYGNVFSQTTICRFEALQLSFKNMCKLKPLLNKWLEEAD — within error, -0.365 ± 0.36
- DDLEQFAKQTKQRRIKLGFTQADVGLALGTLYGNVFSQTTICRFEALQLSFKNMCKLKPLLNKWLEEAD — within error, -0.488 ± 0.17
- DDLEQFAKQVKQRRIKLGFTQADVGLALGTLYGNVFSQTTICRFEALQLSFKNMCKLKPLLNKWLEEAD — lower, -0.885 ± 0.2
- DDLEQFAKQWKQRRIKLGFTQADVGLALGTLYGNVFSQTTICRFEALQLSFKNMCKLKPLLNKWLEEAD — within error, -0.636 ± 0.39
- DDLEQFAKQMKQRRIKLGFTQADVGLALGTLYGNVFSQTTICRFEALQLSFKNMCKLKPLLNKWLEEAD — within error, -0.631 ± 0.33
- DDLEQFAKQGKQRRIKLGFTQADVGLALGTLYGNVFSQTTICRFEALQLSFKNMCKLKPLLNKWLEEAD — within error, -0.288 ± 0.12
- DDLEQFAKQPKQRRIKLGFTQADVGLALGTLYGNVFSQTTICRFEALQLSFKNMCKLKPLLNKWLEEAD — lower, -0.896 ± 0.25
- DDLEQFAKQNKQRRIKLGFTQADVGLALGTLYGNVFSQTTICRFEALQLSFKNMCKLKPLLNKWLEEAD — within error, -0.705 ± 0.48
- DDLEQFAKQFVQRRIKLGFTQADVGLALGTLYGNVFSQTTICRFEALQLSFKNMCKLKPLLNKWLEEAD — lower, -0.856 ± 0.25
- DDLEQFAKQFTQRRIKLGFTQADVGLALGTLYGNVFSQTTICRFEALQLSFKNMCKLKPLLNKWLEEAD — within error, -0.39 ± 0.16
- DDLEQFAKQFAQRRIKLGFTQADVGLALGTLYGNVFSQTTICRFEALQLSFKNMCKLKPLLNKWLEEAD — within error, -0.298 ± 0.14
- DDLEQFAKQFGQRRIKLGFTQADVGLALGTLYGNVFSQTTICRFEALQLSFKNMCKLKPLLNKWLEEAD — lower, -0.926 ± 0.17
- DDLEQFAKQFRQRRIKLGFTQADVGLALGTLYGNVFSQTTICRFEALQLSFKNMCKLKPLLNKWLEEAD — higher, -0.087 ± 0.055
- DDLEQFAKQFMQRRIKLGFTQADVGLALGTLYGNVFSQTTICRFEALQLSFKNMCKLKPLLNKWLEEAD — within error, -0.386 ± 0.15
- DDLEQFAKQFSQRRIKLGFTQADVGLALGTLYGNVFSQTTICRFEALQLSFKNMCKLKPLLNKWLEEAD — within error, -0.541 ± 0.14
- DDLEQFAKQFWQRRIKLGFTQADVGLALGTLYGNVFSQTTICRFEALQLSFKNMCKLKPLLNKWLEEAD — within error, -0.753 ± 0.22
- DDLEQFAKQFQQRRIKLGFTQADVGLALGTLYGNVFSQTTICRFEALQLSFKNMCKLKPLLNKWLEEAD — higher, -0.106 ± 0.14
- DDLEQFAKQFLQRRIKLGFTQADVGLALGTLYGNVFSQTTICRFEALQLSFKNMCKLKPLLNKWLEEAD — lower, -0.944 ± 0.17
- DDLEQFAKQFPQRRIKLGFTQADVGLALGTLYGNVFSQTTICRFEALQLSFKNMCKLKPLLNKWLEEAD — lower, -0.888 ± 0.29

Reference: the Human Domainome abundance scans (Beltran et al. 2025)
